US20210261671A1 (HARPOON THERAPEUTICS, published 2021)

How the values were obtained:
[1] = target: T1, human FLT3 protein (human, UniProt P36888 27-541, limits assumed); experiment: colorimetric ELISA, signal over control wells lacking FLT3
T1 construct: protein coated in the screening ELISA; also called ELISA FLT3
Description: (§1) Llamas were immunized with purified FLT3 protein expressed in Expi293 cells. A phage display library for expression of heavy variable antibody domains was constructed from circulating B cells isolated from the immunized llamas (See van der Linden, de Geus, Stok, Bos, van Wassenaar, Verrips, and Frenken. 2000. J Immunol Methods 240:185-195). Phage clones were screened for binding to FLT3 by expressing llama anti-FLT3 proteins in E. coli, preparing periplasmic extracts, and performing colorimetric ELISAs.

[2] = target: T1, human FLT3 protein; experiment: colorimetric ELISA, periplasmic extract
Description: as §1

Row | Binder | FLT3/control [1] [ratio] | ELISA FLT3 (absorbance) [2] [absorbance]
1 | FLL107 (VHH, llama anti-FLT3 variable domain; E. coli periplasmic extract) VHH: QVQLQESGGGLVQAGGSLRLSCAASGRTFSSYAMGWFRQAPGKEREFVAAISWSGSNTYYADSVKGRFTISRDNAKNTVYLQMDSLKPEDTAVYYCAAGGSTRVVVTTTPVVKYWGQGTQVTVSS | 11 | 3.8
2 | FLL4 (VHH, llama anti-FLT3 variable domain; E. coli periplasmic extract) VHH: QVQLQESGGGLVQAGGSLRLSCAASERTFSSYTMGWFRQAPGKEREFVAAMSWSGGSTYYADSVKGRFTISRDNAKNTVYLQMDSLKPEDTAVYYCAAGGSTRVVVTTTPVVKYWGQGTQVTVSS | 43 | 3.7
3 | FLL34 (VHH, llama anti-FLT3 variable domain; E. coli periplasmic extract) VHH: QVQLQESGGGLVQAGGSLRLSCAASGRTFSSYALGWFRQAPGKEREFVAAISWSGGNTYYADSVKGRFTISRDDAKNTVYLQMDSLKPEDTAVYYCAAGGSTRVVVTTTPVVKYWGQGTQVTVSS | 39 | 4
4 | FLL45 (VHH, llama anti-FLT3 variable domain; E. coli periplasmic extract) VHH: QVQLQESGGGLVQAGGSLRLSCAASGGTFSSSAMGWFRQAPGKEREFVATITQNDVPTYYTHSVKGRFTISRDNAKNTMYLQMNSLKPEDTAVYYCAQRVAQASGWRTTIKDYGYWGQGTQVTVSS | 28 | 4
5 | FLL178 (VHH, llama anti-FLT3 variable domain; E. coli periplasmic extract) VHH: QVQLQESGGGLVQPGGSLRLSCAASGFTFSDYAMSWVRQAPGKGLEWVSGISSGGYKIGYTDSTKGRFTISRDNAKNTLYLQMNSLTAEDTAVYYCAKGTQWSWSLRDNTSRGQGTQVTVSS | 48 | 4
6 | FLL27 (VHH, llama anti-FLT3 variable domain; E. coli periplasmic extract) VHH: QVQLQESGGGLVQPGGSLRLSCKASGFTFSSYAMSWVRQAPGKGLEWVSGISSGGYKIGYTDSTKGRFTISRDNAKNTLYLQMNSLNAEDTAVYYCAKGTQWSWALRDSTSRGQGTQVTVSS | 10 | 4
7 | FLL15 (VHH, llama anti-FLT3 variable domain; E. coli periplasmic extract) VHH: QVQLQESGGGLVQAGGSLSLSCAASEGTISHAAMGWFRQAPGKERQFVAYDTWTGGSTNYADSVKDRFTITGDHAKNTVYLQMNSLKPEDTGVYYCAVRGRYSASYTYTNPASYKYWGQGTQVTVSS | 31 | 2.5
8 | FLL160 (VHH, llama anti-FLT3 variable domain; E. coli periplasmic extract) VHH: QVQLQESGGGLVQAGDSLRLSCATSGRTFNLYRVGWFRQAPGKEREFVARITWSADITQYADSVKGRFTISRDNAKNTVYLQMNSLKPEDTAIYYCATTLRKSSGIYHVDDYDDWGQGTQVTVSS | 9 | 0.7
9 | FLL190 (VHH, llama anti-FLT3 variable domain; E. coli periplasmic extract) VHH: QVQLQESGGGLVQAGGSLTLSCTASGSTFSINHFSWYRQAPGKQRELVAFISSDGVSIDVESVKGRFTISGDNDKNTAYLQMNGLKPEDTAVYYCYYRGFWGQGTQVTVSS | 43 | 4
10 | FLL43 (VHH, llama anti-FLT3 variable domain; E. coli periplasmic extract) VHH: QVQLQESGGGLVQPGGSLTLSCTASGSTFSINHFAWYRQAPGKQRELVAFISSDGRSTDVESVKGRFTISGDNDKNTAYLQMNGLKPEDTAVYYCYYRGSWGQGTQVTVSS | 12 | 2
11 | FLL116 (VHH, llama anti-FLT3 variable domain; E. coli periplasmic extract) VHH: QVQLQESGGGLVQAGGSLRLSCAASGVTFSINYIDWYRQAPGKQREWVAQITRDSNSFYADSVKGRFAISRDNAKNTVYLQMNSLKPEDTAVYYCRVLSYWGQGTQVTVSS | 5 | 1.1
12 | FLL32 (VHH, llama anti-FLT3 variable domain; E. coli periplasmic extract) VHH: QVQLQESGGGLVQAGGSLRLSCQASGVTFNINYIDWYRQAPGRQREWVAQITRDSTRFYADSVKGRFAISRDNAKNMVYLQLNSLKPEDTAVYYCRILSYWGQGTQVTVSS | 5 | 1.6
13 | FLL14 (VHH, llama anti-FLT3 variable domain; E. coli periplasmic extract) VHH: QVQLQESGGGLVQAGGSLRLSCAASGVTFSINYIDWYRQAPGKQREWVAQITRDSNSFYADSVKGRFAISRDNAKNTVYLQMNSLKPEDTAVYYCRLLSYWGQGTQVTVSS | 5 | 1.8
14 | FLL1 (VHH, llama anti-FLT3 variable domain; E. coli periplasmic extract) VHH: QVQLQESGGGLVQAGGSLRLSCAASGRTFSTLTVAWFRQAPGKEREFVVASIPSGSNTGYAESVKGRFTISRDIAKNTVYLQMNSLKPEDTAMYFCAARIYFGSSRGYDYWGQGTQVTVSS | 11 | 3.4
15 | FLL26 (VHH, llama anti-FLT3 variable domain; E. coli periplasmic extract) VHH: QVQLQESGGGLVQAGGSLRLSCAASGRTFTTYTVAWFRQAPGKEREFLVASIPTGSNTAYAESVKGRFTISRGNAKNTVYLQMNSLKPEDTAMYYCAARTYFGSSRGYDYWGQGTQVTVSS | 4 | 2.9

Next, values leading:

Row | FLT3/control [1] [ratio] | ELISA FLT3 (absorbance) [2] [absorbance] | Binder
16 | 28 | 4 | FLL141 (VHH, llama anti-FLT3 variable domain; E. coli periplasmic extract) VHH: QVQLQESGGGLVQAGGSLRLSCAASGRTFSSYAMGWFRQAPGMEREFVAAISWSGYSTYYADSVKGRFTISRDDAKNTVYLQMDSLKPEDTAVYYCAAGGSTRVVVTTTPVVKYWGQGTQVTVSS
17 | 25 | 3.9 | FLL61 (VHH, llama anti-FLT3 variable domain; E. coli periplasmic extract) VHH: QVQLQESGGGLVQAGGSLRLSCAASERTFSSYAMGWFRQAPGKEREFVAAISWSGGSTYYADSVKGRFTISRDNAKNTVYLQMDSLKPEDTAVYYCAAGGSTRVVVTTTPIVKYWGQGTQVTVSS
18 | 27 | 4 | FLL78 (VHH, llama anti-FLT3 variable domain; E. coli periplasmic extract) VHH: QVQLQESGGGWVQAGGSLRLSCAASGRTFSSYAMGWFRQAPGKEREFVAAISWSGSSTYYADSVKGRFTISRDNAKNTVYLLMDSLKPEDTAVYYCAAGGSTRVVVTTTPVVKYWGQGTQVTVSS
19 | 6 | 0.5 | FLL173 (VHH, llama anti-FLT3 variable domain; E. coli periplasmic extract) VHH: QVQLQESGGGLVQAGGSLRLSCATSGRTFNLYRVGWFRQAPGKEREFVARITWSADITQYTDSVKGRFTISRDNAKNTVYLQMNSLKPEDTAIYYCATTLRKSSGIYHTDDYDYWGQGTQVTVSS
20 | 5 | 3.2 | FLL181 (VHH, llama anti-FLT3 variable domain; E. coli periplasmic extract) VHH: QVQLQESGGGLVQAGDSLRLSCAASGVTFSASYIDWYRQAPGNEREWVAQITRGGDSFYADSVKGRFAISRDNAKNTVYLQMNSLKPEDTAVYYCRVLSYWGQGTQVTVSS
21 | 28 | 3.8 | FLL103 (VHH, llama anti-FLT3 variable domain; E. coli periplasmic extract) VHH: QVQLQESGGGLVQAGGSLRLSCEASGPTFSINYIDWYRQAPGKQREWVAQITRDSNSFYADSVKGRFAVSRDNAKNTVYLQMNSLKPEDTAVYYCRVLSYWGQGTQVTVSS
22 | 7 | 1.4 | FLL97 (VHH, llama anti-FLT3 variable domain; E. coli periplasmic extract) VHH: QVQLQESGGGLVQAGGSLRLSCAASGVTFSINYIDWYRQAPGKQREWVAQITRDSNSFYADSVKGRFAVSRDNAKNTVYLQMNSLKPEDTAVYYCRVLSYWGQGTQVTVSS
23 | 22 | 4 | FLL77 (VHH, llama anti-FLT3 variable domain; E. coli periplasmic extract) VHH: QVQLQESGGGLVQPGGSLRLSCAASGVTFSISYIDWYRQAPGNEREWVAQITRGGDSFYADSVKGRFAISRDNAKNTVYLQMNSLKPEDTAVYYCRILSYWGQGTQVTVSS
24 | 8 | 1.8 | FLL137 (VHH, llama anti-FLT3 variable domain; E. coli periplasmic extract) VHH: QVQLQESGGGLVQAGGSLRLSCAASGSTFNNYAMDWFRQAPGKQREWVAQITRDSSSFYADSVKGRFAISRDNAKNTVYLQMNSLKPEDTAVYYCRVLSYWGQGTQVTVSS
25 | 9 | 2.6 | FLL129 (VHH, llama anti-FLT3 variable domain; E. coli periplasmic extract) VHH: QVQLQESGGGLVQAGGSLRLSCAASGVTFSASYIDWYRQAPGNEREWVAQITRGGDSFYADSVKGRFAISRDNAKNTVYLQMNSLKPEDTAVYYCRVLSYWGQGTQVTVSS
26 | 17 | 3.7 | FLL179 (VHH, llama anti-FLT3 variable domain; E. coli periplasmic extract) VHH: QVQLQESGGGLVQAGGSLRLSCKASGVTFSINYIDWYRQAPGKQREWVAQITRDGSSFYADSVKGRFAISRDNAKNTVYLQMNSLKPEDTAVYYCRILSDWGQGTQVTVSS
27 | 4 | 0.9 | FLL146 (VHH, llama anti-FLT3 variable domain; E. coli periplasmic extract) VHH: QVQLQESGGGLVQAGGSLRLSCAASGVTFSINYIDWYRQAPGKQREWVAQITRDDTSFYADSVKGRFAISRDNAKNTVYLQMNNLRPEDTAVYYCRLLSFWGQGTQVTVSS
28 | 3 | 1.7 | FLL101 (VHH, llama anti-FLT3 variable domain; E. coli periplasmic extract) VHH: QVQLQESGGGLVQAGGSLRLSCAASGVTFSINYIDWYRQAPGKQREWVAQITRDSNSFYADSVKGRFAISRDNAKNTVYLQMNNLKPEDTAVYYCRVLSYWGQGTQVTVSS
29 | 16 | 2.9 | FLL51 (VHH, llama anti-FLT3 variable domain; E. coli periplasmic extract) VHH: QVQLQESGGGLVQPGGSLRLSCAASGFDFSISYIDWYRQAPGNEREWVAQITRGGDSFYADSVKGRFAISRDNAKNTVYLQMNSLKPEDTAVYYCRILSYWGQGTQVTVSS
30 | 18 | 1.9 | FLL187 (VHH, llama anti-FLT3 variable domain; E. coli periplasmic extract) VHH: QVQLQESGGGLVQPGGSLRLSCAASGVTFSINYIDWYRQAPGKQREWVAQITRDSNSFYADSVKGRFAISRENAKNTVYLQMNSLKPEDTAVYYCRVLSYWGQGTQVTVSS
